Source: paper PMC9482650, “Quantitative fragmentomics allow affinity mapping of interactomes” (Nature Communications, 2022)

Legend:
Assay in all cases: holdup assay
Design in all cases: key: below the threshold = too weak to quantify, mostly under pKd 3.1 to 4
Inadl_4, Q8NI35 = biological target: Inadl_4, Q8NI35
Inadl_8, Q8NI35 = biological target: Inadl_8, Q8NI35
TX1BP3, O14907 = biological target: T1, TX1BP3, O14907
T1 sequence (O14907 10-122, limits assumed, looked up): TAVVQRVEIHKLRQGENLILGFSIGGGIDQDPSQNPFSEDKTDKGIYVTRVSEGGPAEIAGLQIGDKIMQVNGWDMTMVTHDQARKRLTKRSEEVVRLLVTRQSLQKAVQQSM

LNX2_3, Q8N448 = biological target: T2, LNX2_3, Q8N448
T2 sequence (Q8N448 463-564, limits assumed, looked up): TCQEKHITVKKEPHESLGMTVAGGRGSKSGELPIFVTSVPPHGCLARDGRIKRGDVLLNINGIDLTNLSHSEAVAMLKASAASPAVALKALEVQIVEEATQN

LIN7B, Q9HAP6 = biological target: T3, LIN7B, Q9HAP6
T3 sequence (Q9HAP6 88-185, limits assumed, looked up): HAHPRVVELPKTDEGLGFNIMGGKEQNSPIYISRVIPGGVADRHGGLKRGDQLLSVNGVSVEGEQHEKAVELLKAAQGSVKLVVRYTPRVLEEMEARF

GRASP, Q7Z6J2 = biological target: GRASP, Q7Z6J2
DFNB31_2, Q9P202 = biological target: T4, DFNB31_2, Q9P202
T4 sequence (Q9P202 274-371, limits assumed, looked up): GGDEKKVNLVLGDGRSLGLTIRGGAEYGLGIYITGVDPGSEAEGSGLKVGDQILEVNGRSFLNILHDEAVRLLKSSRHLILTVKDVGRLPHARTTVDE

GRIP2_3, Q9C0E4 = biological target: GRIP2_3, Q9C0E4
Inadl_5, Q8NI35 = biological target: Inadl_5, Q8NI35
PICK1, Q9NRD5 = biological target: PICK1, Q9NRD5
PDZRN3_1, Q9UPQ7 = biological target: T5, PDZRN3_1, Q9UPQ7
T5 sequence (Q9UPQ7 244-349, limits assumed, looked up): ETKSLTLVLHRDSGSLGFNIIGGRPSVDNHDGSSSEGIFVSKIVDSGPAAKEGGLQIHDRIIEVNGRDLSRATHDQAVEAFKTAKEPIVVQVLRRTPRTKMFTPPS

TJP2_1, Q9UDY2 = biological target: TJP2_1, Q9UDY2
LAP2, Q96RT1 = biological target: LAP2, Q96RT1
HTRA1, Q92743 = biological target: HTRA1, Q92743
AHNAK1, Q09666 = biological target: AHNAK1, Q09666
SHANK1, Q9Y566 = biological target: T6, SHANK1, Q9Y566
T6 sequence (Q9Y566 658-767, limits assumed, looked up): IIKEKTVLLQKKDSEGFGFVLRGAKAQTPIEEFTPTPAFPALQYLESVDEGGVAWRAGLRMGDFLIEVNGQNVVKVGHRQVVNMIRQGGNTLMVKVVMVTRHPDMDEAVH

Inadl_3, Q8NI35 = biological target: Inadl_3, Q8NI35
PDZD2_2, O15018 = biological target: T7, PDZD2_2, O15018
T7 sequence (O15018 329-429, limits assumed, looked up): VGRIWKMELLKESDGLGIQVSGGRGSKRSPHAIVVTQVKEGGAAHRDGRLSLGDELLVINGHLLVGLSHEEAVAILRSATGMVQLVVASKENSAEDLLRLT

GRIP1_2, Q9Y3R0 = biological target: T8, GRIP1_2, Q9Y3R0
T8 sequence (Q9Y3R0 145-248, limits assumed, looked up): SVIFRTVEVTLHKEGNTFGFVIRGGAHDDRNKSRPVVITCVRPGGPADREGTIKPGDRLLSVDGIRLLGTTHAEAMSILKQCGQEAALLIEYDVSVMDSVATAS

PTPN13_1, Q12923 = biological target: T9, PTPN13_1, Q12923
T9 sequence (Q12923 1088-1188, limits assumed, looked up): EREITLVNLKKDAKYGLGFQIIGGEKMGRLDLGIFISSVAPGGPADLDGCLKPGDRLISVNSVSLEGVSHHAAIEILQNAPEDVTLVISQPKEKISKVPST

ARHGEF11, O15085 = biological target: T10, ARHGEF11, O15085
T10 sequence (O15085 42-136, limits assumed, looked up): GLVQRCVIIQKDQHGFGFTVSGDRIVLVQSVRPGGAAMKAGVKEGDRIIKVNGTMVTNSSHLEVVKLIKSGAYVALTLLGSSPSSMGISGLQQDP

SNTB1, Q13884 = biological target: T11, SNTB1, Q13884
T11 sequence (Q13884 107-205, limits assumed, looked up): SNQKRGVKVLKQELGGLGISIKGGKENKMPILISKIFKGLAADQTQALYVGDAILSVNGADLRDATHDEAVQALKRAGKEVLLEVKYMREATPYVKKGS

PARD3_3, Q8TEW0 = biological target: PARD3_3, Q8TEW0
SCRIB_2, Q14160 = biological target: SCRIB_2, Q14160
Inadl_10, Q8NI35 = biological target: Inadl_10, Q8NI35
MAGI3_2, Q5TCQ9 = biological target: MAGI3_2, Q5TCQ9
[1] = plain residues with an end cap or a label only (N-terminal biotin on a linker: ado-ado)
[2] = plain residues with an end cap or a label only (N-terminal biotin on a linker: (peg)3)

Measured: pKd

Sequence of PICK1, Q9NRD5 (Q9NRD5 17-115): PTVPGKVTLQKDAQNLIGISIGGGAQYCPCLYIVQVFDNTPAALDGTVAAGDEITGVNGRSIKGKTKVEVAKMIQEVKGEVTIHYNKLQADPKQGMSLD
Sequence of MAGI3_2, Q5TCQ9 (Q5TCQ9 398-503): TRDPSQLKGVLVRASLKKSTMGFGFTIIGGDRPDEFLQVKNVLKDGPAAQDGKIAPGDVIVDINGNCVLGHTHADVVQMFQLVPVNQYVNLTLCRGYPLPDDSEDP
Sequence of AHNAK1, Q09666 (Q09666 4-100): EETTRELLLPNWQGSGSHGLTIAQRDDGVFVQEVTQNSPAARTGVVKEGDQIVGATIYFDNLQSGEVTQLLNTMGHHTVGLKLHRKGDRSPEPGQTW
Sequence of Inadl_4, Q8NI35 (Q8NI35 547-651): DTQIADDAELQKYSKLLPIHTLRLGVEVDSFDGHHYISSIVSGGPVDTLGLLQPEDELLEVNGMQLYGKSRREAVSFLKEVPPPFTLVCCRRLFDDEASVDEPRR
Sequence of LAP2, Q96RT1 (Q96RT1 other isoform, or with tags, fused parts or gaps): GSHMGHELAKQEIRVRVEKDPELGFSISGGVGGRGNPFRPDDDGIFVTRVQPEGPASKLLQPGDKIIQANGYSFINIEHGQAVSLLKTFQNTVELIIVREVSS
Sequence of GRASP, Q7Z6J2 (Q7Z6J2 96-193): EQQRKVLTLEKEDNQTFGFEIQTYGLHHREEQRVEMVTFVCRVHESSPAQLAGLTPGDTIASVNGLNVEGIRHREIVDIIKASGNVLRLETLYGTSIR
Sequence of HTRA1, Q92743 (Q92743 360-477): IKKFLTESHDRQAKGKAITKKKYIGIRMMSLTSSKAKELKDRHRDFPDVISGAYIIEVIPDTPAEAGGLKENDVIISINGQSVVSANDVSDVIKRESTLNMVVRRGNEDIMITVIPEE
Sequence of Inadl_8, Q8NI35 (Q8NI35 1425-1530): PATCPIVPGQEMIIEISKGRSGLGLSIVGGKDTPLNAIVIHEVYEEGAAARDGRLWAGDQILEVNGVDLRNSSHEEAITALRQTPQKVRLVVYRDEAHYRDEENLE
Sequence of Inadl_10, Q8NI35 (Q8NI35 1673-1763): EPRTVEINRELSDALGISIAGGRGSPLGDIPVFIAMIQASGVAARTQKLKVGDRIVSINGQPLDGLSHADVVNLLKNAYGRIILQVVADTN
Sequence of Inadl_5, Q8NI35 (Q8NI35 673-780): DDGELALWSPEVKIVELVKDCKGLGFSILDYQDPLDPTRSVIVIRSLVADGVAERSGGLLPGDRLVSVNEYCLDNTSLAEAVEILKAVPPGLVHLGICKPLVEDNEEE
Sequence of Inadl_3, Q8NI35 (Q8NI35 359-469): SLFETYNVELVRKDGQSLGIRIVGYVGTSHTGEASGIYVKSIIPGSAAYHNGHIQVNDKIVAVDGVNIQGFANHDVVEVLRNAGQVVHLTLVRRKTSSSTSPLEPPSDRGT
Sequence of PARD3_3, Q8TEW0 (Q8TEW0 582-685): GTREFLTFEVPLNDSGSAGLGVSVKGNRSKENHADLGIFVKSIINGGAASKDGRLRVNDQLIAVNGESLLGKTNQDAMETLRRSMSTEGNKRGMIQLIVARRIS
Sequence of SCRIB_2, Q14160 (Q14160 857-960): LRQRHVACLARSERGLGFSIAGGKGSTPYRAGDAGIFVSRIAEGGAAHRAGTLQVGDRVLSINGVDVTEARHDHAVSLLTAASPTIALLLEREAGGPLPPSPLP
Sequence of GRIP2_3, Q9C0E4 (Q9C0E4 238-339): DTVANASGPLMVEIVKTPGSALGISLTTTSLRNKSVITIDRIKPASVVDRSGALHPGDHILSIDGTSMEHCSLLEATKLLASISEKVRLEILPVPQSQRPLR
Sequence of TJP2_1, Q9UDY2 (Q9UDY2 24-128): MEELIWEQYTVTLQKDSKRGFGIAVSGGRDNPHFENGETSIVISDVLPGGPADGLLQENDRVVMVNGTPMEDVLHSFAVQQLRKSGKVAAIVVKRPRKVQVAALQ

B1: PTGIR, P43119 (peptide)
chain: AEASVACSLC
4.43: GRASP, Q7Z6J2; [1]
3.77: Inadl_8, Q8NI35; [1]
below the threshold: Inadl_4, Q8NI35; [1] | TX1BP3, O14907; [1] | LNX2_3, Q8N448; [1] | LIN7B, Q9HAP6; [1] | DFNB31_2, Q9P202; [1] | GRIP2_3, Q9C0E4; [1] | Inadl_5, Q8NI35; [1] | PICK1, Q9NRD5; [1] | PDZRN3_1, Q9UPQ7; [1] | TJP2_1, Q9UDY2; [1] | LAP2, Q96RT1; [1] | AHNAK1, Q09666; [1] | Inadl_3, Q8NI35; [1] | GRIP1_2, Q9Y3R0; [1] | PTPN13_1, Q12923; [1] | ARHGEF11, O15085; [1] | SNTB1, Q13884; [1] | PARD3_3, Q8TEW0; [1] | SCRIB_2, Q14160; [1] | Inadl_10, Q8NI35; [1] | MAGI3_2, Q5TCQ9; [1]
3.65: SHANK1, Q9Y566; [1]
4.29: PDZD2_2, O15018; [1]
3.93: HTRA1, Q92743; [1]

B2: NECTIN1, Q15223 (peptide)
chain: SFISKKEWYV
3.66: Inadl_8, Q8NI35; [1]
below the threshold: Inadl_4, Q8NI35; [1] | TX1BP3, O14907; [1] | LNX2_3, Q8N448; [1] | GRASP, Q7Z6J2; [1] | DFNB31_2, Q9P202; [1] | GRIP2_3, Q9C0E4; [1] | PDZRN3_1, Q9UPQ7; [1] | LAP2, Q96RT1; [1] | AHNAK1, Q09666; [1] | SHANK1, Q9Y566; [1] | GRIP1_2, Q9Y3R0; [1] | PTPN13_1, Q12923; [1] | SNTB1, Q13884; [1] | SCRIB_2, Q14160; [1] | Inadl_10, Q8NI35; [1]
4.41: ARHGEF11, O15085; [1]
5.24: HTRA1, Q92743; [1]
5.02: PDZD2_2, O15018; [1]
4.83: Inadl_3, Q8NI35; [1]
4.24: PICK1, Q9NRD5; [1]
4: TJP2_1, Q9UDY2; [1]
4.82: Inadl_5, Q8NI35; [1]
5.55: MAGI3_2, Q5TCQ9; [1]
4.53: PARD3_3, Q8TEW0; [1]
3.63: LIN7B, Q9HAP6; [1]

B3: SBF1, O95248 (peptide)
chain: DRIQSCLSDA
below the threshold: Inadl_4, Q8NI35; [1] | Inadl_8, Q8NI35; [1] | LNX2_3, Q8N448; [1] | GRASP, Q7Z6J2; [1] | DFNB31_2, Q9P202; [1] | GRIP2_3, Q9C0E4; [1] | Inadl_5, Q8NI35; [1] | PICK1, Q9NRD5; [1] | PDZRN3_1, Q9UPQ7; [1] | TJP2_1, Q9UDY2; [1] | LAP2, Q96RT1; [1] | HTRA1, Q92743; [1] | AHNAK1, Q09666; [1] | SHANK1, Q9Y566; [1] | Inadl_3, Q8NI35; [1] | PDZD2_2, O15018; [1] | GRIP1_2, Q9Y3R0; [1] | ARHGEF11, O15085; [1] | SNTB1, Q13884; [1] | PARD3_3, Q8TEW0; [1] | SCRIB_2, Q14160; [1] | Inadl_10, Q8NI35; [1] | MAGI3_2, Q5TCQ9; [1]
3.49: PTPN13_1, Q12923; [1]
3.72: LIN7B, Q9HAP6; [1]
4.04: TX1BP3, O14907; [1]

B4: SLCO1A2, P46721 (peptide)
chain: LKDDELKTKL
3.98: ARHGEF11, O15085; [1]
5.62: SHANK1, Q9Y566; [1]
below the threshold: Inadl_4, Q8NI35; [1] | Inadl_8, Q8NI35; [1] | TX1BP3, O14907; [1] | LNX2_3, Q8N448; [1] | LIN7B, Q9HAP6; [1] | DFNB31_2, Q9P202; [1] | GRIP2_3, Q9C0E4; [1] | Inadl_5, Q8NI35; [1] | PICK1, Q9NRD5; [1] | PDZRN3_1, Q9UPQ7; [1] | TJP2_1, Q9UDY2; [1] | LAP2, Q96RT1; [1] | HTRA1, Q92743; [1] | AHNAK1, Q09666; [1] | Inadl_3, Q8NI35; [1] | PDZD2_2, O15018; [1] | GRIP1_2, Q9Y3R0; [1] | PTPN13_1, Q12923; [1] | SNTB1, Q13884; [1] | PARD3_3, Q8TEW0; [1] | SCRIB_2, Q14160; [1] | Inadl_10, Q8NI35; [1] | MAGI3_2, Q5TCQ9; [1]
4.37: GRASP, Q7Z6J2; [1]

B5: HBV-HBc, P03193 (peptide)
chain: RRRRSQSRESQC
4.05: PICK1, Q9NRD5; [2]
4.14: TX1BP3, O14907; [2]
below the threshold: Inadl_4, Q8NI35; [2] | LNX2_3, Q8N448; [2] | GRASP, Q7Z6J2; [2] | DFNB31_2, Q9P202; [2] | GRIP2_3, Q9C0E4; [2] | Inadl_5, Q8NI35; [2] | TJP2_1, Q9UDY2; [2] | LAP2, Q96RT1; [2] | HTRA1, Q92743; [2] | AHNAK1, Q09666; [2] | SHANK1, Q9Y566; [2] | Inadl_3, Q8NI35; [2] | GRIP1_2, Q9Y3R0; [2] | PTPN13_1, Q12923; [2] | ARHGEF11, O15085; [2] | PARD3_3, Q8TEW0; [2] | SCRIB_2, Q14160; [2] | Inadl_10, Q8NI35; [2]
4.64: MAGI3_2, Q5TCQ9; [2]
3.58: Inadl_8, Q8NI35; [2]
4.78: SNTB1, Q13884; [2]
3.89: PDZRN3_1, Q9UPQ7; [2]
3.88: PDZD2_2, O15018; [2]
3.7: LIN7B, Q9HAP6; [2]
